B1: KIF5B-GFP-mCherry-TRAK1∆ complex (complex)
chain 1: MADLAECNIKVMCRFRPLNESEVNRGDKYIAKFQGEDTVVIASKPYAFDRVFQSSTSQEQVYNDCAKKIVKDVLEGYNGTIFAYGQTSSGKTHTMEGKLHDPEGMGIIPRIVQDIFNYIYSMDENLEFHIKVSYFEIYLDKIRDLLDVSKTNLSVHEDKNRVPYVKGCTERFVCSPDEVMDTIDEGKSNRHVAVTNMNEHSSRSHSIFLINVKQENTQTEQKLSGKLYLVDLAGSEKVSKTGAEGAVLDEAKNINKSLSALGNVISALAEGSTYVPYRDSKMTRILQDSLGGNCRTTIVICCSPSSYNESETKSTLLFGQRAKTIKNTVCVNVELTAEQWKKKYEKEKEKNKILRNTIQWLENELNRWRNGETVPIDEQFDKEKANLEAFTVDKDITLTNDKPATAIGVIGNFTDAERRKCEEEIAKLYKQLDDKDEEINQQSQLVEKLKTQMLDQEELLASTRRDQDNMQAELNRLQAENDASKEEVKEVLQALEELAVNYDQKSQEVEDKTKEYELLSDELNQKSATLASIDAELQKLKEMTNHQKKRAAEMMASLLKDLAEIGIAVGNNDVKQPEGTGMIDEEFTVARLYISKMKSEVKTMVKRCKQLESTQTESNKKMEENEKELAACQLRISQHEAKIKSLTEYLQNVEQKKRQLEESVDALSEELVQLRAQEKVHEMEKEHLNKVQTANEVKQAVEQQIQSHRETHQKQISSLRDEVEAKAKLITDLQDQNQKMMLEQERLRVEHEKLKATDQEKSRKLHELTVMQDRREQARQDLKGLEETVAKELQTLHNLRKLFVQDLATRVKKSAEIDSDDTGGSAAQKQKISFLENNLEQLTKVHKQLVRDNADLRCELPKLEKRLRATAERVKALESALKEAKENASRDRKRYQQEVDRIKEAVRSKNMARRGHSAQIAKPIRPGQHPAASPTHPSAIRGGGAFVQNSQPVAVRGGGGKQV
chain 2: MALVFQFGQPVRAQPLPGLCHGKLIRTNACDVCNSTDLPEVEIISLLEEQLPHYKLRADTIYGYDHDDWLHTPLISPDANIDLTTEQIEETLKYFLLCAERVGQMTKTYNDIDAVTRLLEEKERDLELAARIGQSLLKKNKTLTERNELLEEQVEHIREEVSQLRHELSMKDELLQFYTSAAEESEPESVCSTPLKRNESSSSVQNYFHLDSLQKKLKDLEEENVVLRSEASQLKTETITYEEKEQQLVNDCVKELRDANVQIASISEELAKKTEDAARQQEEITHLLSQIVDLQKKAKACAVENEELVQHLGAAKDAQRQLTAELRELEDKYAECMEMLHEAQEELKNLRNKTMPNTTSRRYHSLGLFPMDSLAAEIEGTMRKELQLEEAESPDITHQKRVFETVRNINQVVKQRSLTPSPMNIPGSNQSSAMNSLLSSCVSTPRSSFYGSDIGNVVLDNKTNSIILETEAADLGNDERSKKPGTPGTPGSHDLETALRRLSLRRENYLSERRFFEEEQERKLQELAEKGELRSGSLTPTESIMSLGTHSRFSEFTGFSGMSFSSRSYLPEKLQIVKPLEGSATLHHWQQLAQPHLGGILDPRPGVVTKGFRTLDVDLDEVYCLNDFEEDDTGD
notes: KIF5B, kinesin-1 heavy chain, human, amino acids 1-963; as m1; TRAK1, stop codon after amino acid 635; as m6; also called truncated KIF5B-GFP-mCherry-TRAK1∆ complex; source: the two purified proteins (m1 from SF9, m6 from HEK293T) pre-incubated 10 min on ice; not shown: GFP, C-terminal, kept; 6xHis, C-terminal, cleaved; mCherry, N-terminal, kept; TwinStrep-FLAG-Halo, N-terminal, cleaved
B2: KIF5B∆-GFP in complex with mCherry-TRAK1∆ (complex)
chain 1: MADLAECNIKVMCRFRPLNESEVNRGDKYIAKFQGEDTVVIASKPYAFDRVFQSSTSQEQVYNDCAKKIVKDVLEGYNGTIFAYGQTSSGKTHTMEGKLHDPEGMGIIPRIVQDIFNYIYSMDENLEFHIKVSYFEIYLDKIRDLLDVSKTNLSVHEDKNRVPYVKGCTERFVCSPDEVMDTIDEGKSNRHVAVTNMNEHSSRSHSIFLINVKQENTQTEQKLSGKLYLVDLAGSEKVSKTGAEGAVLDEAKNINKSLSALGNVISALAEGSTYVPYRDSKMTRILQDSLGGNCRTTIVICCSPSSYNESETKSTLLFGQRAKTIKNTVCVNVELTAEQWKKKYEKEKEKNKILRNTIQWLENELNRWRNGETVPIDEQFDKEKANLEAFTVDKDITLTNDKPATAIGVIGNFTDAERRKCEEEIAKLYKQLDDKDEEINQQSQLVEKLKTQMLDQEELLASTRRDQDNMQAELNRLQAENDASKEEVKEVLQALEELAVNYDQKSQEVEDKTKEYELLSDELNQKSATLASIDAELQKLKEMTNHQKKRAAEMMASLLKDLAEIGIAVGNNDVKQPEGTGMIDEEFTVARLYISKMKSEVKTMVKRCKQLESTQTESNKKMEENEKELAACQLRISQHEAKIKSLTEYLQNVEQKKRQLEESVDALSEELVQLRAQEKVHEMEKEHLNKVQTANEVKQAVEQQIQSHRETHQKQISSLRDEVEAKAKLITDLQDQNQKMMLEQERLRVEHEKLKATDQEKSRKLHELTVMQDRREQARQDLKGLEETVAKELQTLHNLRKLFVQDLATRVKKSAEIDSDDTGGSAAQKQKISFLENNLEQLTKVHKQLVRDNADLRCELPKLEKRLRATAERVKALESALKEAKENASRDRKRYQQEVDRIKEA
chain 2: MALVFQFGQPVRAQPLPGLCHGKLIRTNACDVCNSTDLPEVEIISLLEEQLPHYKLRADTIYGYDHDDWLHTPLISPDANIDLTTEQIEETLKYFLLCAERVGQMTKTYNDIDAVTRLLEEKERDLELAARIGQSLLKKNKTLTERNELLEEQVEHIREEVSQLRHELSMKDELLQFYTSAAEESEPESVCSTPLKRNESSSSVQNYFHLDSLQKKLKDLEEENVVLRSEASQLKTETITYEEKEQQLVNDCVKELRDANVQIASISEELAKKTEDAARQQEEITHLLSQIVDLQKKAKACAVENEELVQHLGAAKDAQRQLTAELRELEDKYAECMEMLHEAQEELKNLRNKTMPNTTSRRYHSLGLFPMDSLAAEIEGTMRKELQLEEAESPDITHQKRVFETVRNINQVVKQRSLTPSPMNIPGSNQSSAMNSLLSSCVSTPRSSFYGSDIGNVVLDNKTNSIILETEAADLGNDERSKKPGTPGTPGSHDLETALRRLSLRRENYLSERRFFEEEQERKLQELAEKGELRSGSLTPTESIMSLGTHSRFSEFTGFSGMSFSSRSYLPEKLQIVKPLEGSATLHHWQQLAQPHLGGILDPRPGVVTKGFRTLDVDLDEVYCLNDFEEDDTGD
notes: KIF5B, kinesin-1 heavy chain, human, amino acids 1-905; as m2; TRAK1, stop codon after amino acid 635; as m6; source: the two purified proteins (m2 from SF9, m6 from HEK293T) pre-incubated 10 min on ice; not shown: GFP, C-terminal, kept; 6xHis, C-terminal, cleaved; mCherry, N-terminal, kept; TwinStrep-FLAG-Halo, N-terminal, cleaved
B3: KIF5B∆-GFP in complex with mCherry-TRAK1 (complex)
chain 1: MADLAECNIKVMCRFRPLNESEVNRGDKYIAKFQGEDTVVIASKPYAFDRVFQSSTSQEQVYNDCAKKIVKDVLEGYNGTIFAYGQTSSGKTHTMEGKLHDPEGMGIIPRIVQDIFNYIYSMDENLEFHIKVSYFEIYLDKIRDLLDVSKTNLSVHEDKNRVPYVKGCTERFVCSPDEVMDTIDEGKSNRHVAVTNMNEHSSRSHSIFLINVKQENTQTEQKLSGKLYLVDLAGSEKVSKTGAEGAVLDEAKNINKSLSALGNVISALAEGSTYVPYRDSKMTRILQDSLGGNCRTTIVICCSPSSYNESETKSTLLFGQRAKTIKNTVCVNVELTAEQWKKKYEKEKEKNKILRNTIQWLENELNRWRNGETVPIDEQFDKEKANLEAFTVDKDITLTNDKPATAIGVIGNFTDAERRKCEEEIAKLYKQLDDKDEEINQQSQLVEKLKTQMLDQEELLASTRRDQDNMQAELNRLQAENDASKEEVKEVLQALEELAVNYDQKSQEVEDKTKEYELLSDELNQKSATLASIDAELQKLKEMTNHQKKRAAEMMASLLKDLAEIGIAVGNNDVKQPEGTGMIDEEFTVARLYISKMKSEVKTMVKRCKQLESTQTESNKKMEENEKELAACQLRISQHEAKIKSLTEYLQNVEQKKRQLEESVDALSEELVQLRAQEKVHEMEKEHLNKVQTANEVKQAVEQQIQSHRETHQKQISSLRDEVEAKAKLITDLQDQNQKMMLEQERLRVEHEKLKATDQEKSRKLHELTVMQDRREQARQDLKGLEETVAKELQTLHNLRKLFVQDLATRVKKSAEIDSDDTGGSAAQKQKISFLENNLEQLTKVHKQLVRDNADLRCELPKLEKRLRATAERVKALESALKEAKENASRDRKRYQQEVDRIKEA
chain 2: MALVFQFGQPVRAQPLPGLCHGKLIRTNACDVCNSTDLPEVEIISLLEEQLPHYKLRADTIYGYDHDDWLHTPLISPDANIDLTTEQIEETLKYFLLCAERVGQMTKTYNDIDAVTRLLEEKERDLELAARIGQSLLKKNKTLTERNELLEEQVEHIREEVSQLRHELSMKDELLQFYTSAAEESEPESVCSTPLKRNESSSSVQNYFHLDSLQKKLKDLEEENVVLRSEASQLKTETITYEEKEQQLVNDCVKELRDANVQIASISEELAKKTEDAARQQEEITHLLSQIVDLQKKAKACAVENEELVQHLGAAKDAQRQLTAELRELEDKYAECMEMLHEAQEELKNLRNKTMPNTTSRRYHSLGLFPMDSLAAEIEGTMRKELQLEEAESPDITHQKRVFETVRNINQVVKQRSLTPSPMNIPGSNQSSAMNSLLSSCVSTPRSSFYGSDIGNVVLDNKTNSIILETEAADLGNDERSKKPGTPGTPGSHDLETALRRLSLRRENYLSERRFFEEEQERKLQELAEKGELRSGSLTPTESIMSLGTHSRFSEFTGFSGMSFSSRSYLPEKLQIVKPLEGSATLHHWQQLAQPHLGGILDPRPGVVTKGFRTLDVDLDEVYCLNDFEEDDTGDHISLPRLATSTPVQHPETSAHHPGKCMSQTNSTFTFTTCRILHPSDELTRVTPSLNSAPTPACGSTSHLKSTPVATPCTPRRLSLAESFTNTRESTTTMSTSLGLVWLLKERGISAAVYDPQSWDRAGRGSLLHSYTPKMAVIPSTPPNSPMQTPTSSPPSFEFKCTSPPYDNFLASKPASSILREVREKNVRSSESQTDVSVSNLNLVDKVRRFGVAKVVNSGRAHVPTLTEEQGPLLCGPPGPAPALVPRGLVPEGLPLRCPTVTSAIGGLQLNSGIRRNRSFPTMVGSSMQMKAPVTLTSGILMGAKLSKQTSLR
notes: KIF5B, kinesin-1 heavy chain, human, amino acids 1-905; as m2; TRAK1, cDNA KIAA1042; as m5; also called KIF5B∆-GFP-mCherry-TRAK1 complex; KIF5B∆-TRAK1 transport complex; source: the two purified proteins (m2 from SF9, m5 from HEK293T) pre-incubated 10 min on ice; not shown: GFP, C-terminal, kept; 6xHis, C-terminal, cleaved; mCherry, N-terminal, kept; TwinStrep-FLAG-Halo, N-terminal, cleaved; …

This experiment addresses microtubules polymerized from porcine tubulin (porcine, UniProt P02550 1-451; Q767L7 1-444, Alexa Fluor 647 NHS ester on 20% of the tubulin in fluorescently labeled microtubules | Alexa Fluor 647 NHS ester on 20% of the tubulin in fluorescently labeled microtubules). Description: single-molecule TIRF microscopy, two-colour co-movement on immobilised microtubules; KIF5B construct and 175 nM TRAK1 construct pre-incubated 10 min on ice, flushed onto bare immobilised microtubules in motility buffer with 1 mM Mg-ATP; room temperature; for the complexes traces of the mCherry-TRAK1 channel analysed. As to conditions: both partners purified.
For B1, the “median interaction time with microtubules” value came to 5.33 s.
For B2 the value was 2.22 s; for B3, 12.2 s.
